Reference: patent publication US20240052051A1 (Regeneron, published 2024)

Biological target: T1, human transferrin receptor extracellular domain with hexahistidine-myc-myc tag (REGN2431) (human, UniProt P02786 89-760)
T1 construct: also called hTFR-mmh; hmm.hTfRC
Assay: blocking ELISA: supernatant pre-mixed with 300 pM Hmm-hTFRC, hTFRC bound to immobilized human holo-Tf read
Description: In the blocking assay, the anti-human Transferrin goat IgG polyclonal antibody (anti-hTf pAb) was passively absorbed at a concentration of 2 micrograms/mL in PBS on a 96-well microtiter plate overnight at 4° C. […] To the same plate, human holo-Tf was then added at a concentration of 1 micrograms/mL in PBS+0.5% BSA for 2 hours at room temperature. […] After a 1-hour incubation, the mixtures were transferred to the human holo-Tf microtiter plates. […] The plates were developed using TMB substrate solution according to the manufacturer's recommended procedure and absorbance at 450 nm was measured on a Victor™ Multilabel Plate Reader.
The ability of the anti-TfR antibody to block human TFRC binding to human holo-Tf was evaluated using an ELISA-based blocking assay.

T1 sequence (P02786 other isoform, or with tags, fused parts or gaps): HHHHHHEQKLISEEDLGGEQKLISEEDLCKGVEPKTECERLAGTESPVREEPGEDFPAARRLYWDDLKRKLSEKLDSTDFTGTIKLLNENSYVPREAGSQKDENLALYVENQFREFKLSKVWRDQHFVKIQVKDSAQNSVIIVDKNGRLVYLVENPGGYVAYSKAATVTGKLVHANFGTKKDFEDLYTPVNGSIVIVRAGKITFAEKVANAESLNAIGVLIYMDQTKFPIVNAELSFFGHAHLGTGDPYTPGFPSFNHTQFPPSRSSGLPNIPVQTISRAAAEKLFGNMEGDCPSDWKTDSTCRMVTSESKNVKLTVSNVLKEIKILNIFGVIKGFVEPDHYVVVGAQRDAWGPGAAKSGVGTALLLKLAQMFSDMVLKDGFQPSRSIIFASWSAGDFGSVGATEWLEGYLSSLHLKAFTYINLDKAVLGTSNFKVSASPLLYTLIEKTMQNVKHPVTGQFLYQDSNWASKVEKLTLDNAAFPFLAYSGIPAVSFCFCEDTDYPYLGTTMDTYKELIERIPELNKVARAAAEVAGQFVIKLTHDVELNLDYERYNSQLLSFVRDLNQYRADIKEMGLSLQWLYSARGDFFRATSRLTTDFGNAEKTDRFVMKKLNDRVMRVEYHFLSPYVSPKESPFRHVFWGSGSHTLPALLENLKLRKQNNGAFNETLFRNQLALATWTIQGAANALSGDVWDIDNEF

B1: 69348 anti-hTfR scFv (VH-VK) (scFv)
scFv: QVQLVESGGGVVQPGRSLRLSCAASGFTFTTYGMHWVRQAPGKGLEWVAVIWYDGSNKYYGDSVKGRFTISRDNSKNTLYLQMNSLRVDDTAVYYCTRTHGYTRSSDGFDYWGQGTLVTVSSGGGGSGGGGSGGGGSDIQMTQSPSSLSASVGDRVTITCRASQSIRNVLGWFQQKPGKAPQRLIYAASSLQSGVPSRFSGSGSGTEFTLTISSLQPEDFATYYCLQHNFYPLTFGGGTKVEIK
notes: also called 69348 scFv (VH - VK) Format
- % Blocking: 0%
